Here are results for four molecules from paper PMC10192418 (2023).

Ends that are not written are not given here. FAM = 5(6)-carboxyfluorescein (N-terminal)

Sequences and labels used below:
B1: B-RCAL (BÜHLMANN recombinant calprotectin; His6-linker-S100A9-linker-S100A8) (complex)
chain: MTCKMSQLERNIETIINTFHQYSVKLGHPDTLNQGEFKELVRKDLQNFLKKENKNEKVIEHIMEDLDTNADKQLSFEEFIMLMARLTWASHEKMHEGDEGPGHHHKPGLGEGTPLEVLFQGPMLTELEKALNSIIDVYHKYSLIKGNFHAVYRDDLKKLLETECPQYIRKKGADVWFKELDINTDGAVNFQEFLILVIKMGVAAHKKSHEESHKE

Test [1] addresses Peptide 9. As to the kind of experiment: FP; calcium (tetramer).
Test [2] addresses Peptide 10. As to the kind of experiment: FP; calcium (tetramer).
The target in test [3] is Peptide 13. The test is described as follows: FP; calcium (tetramer).
Test [4] concerns the target Peptide 12. The test is described as follows: FP; calcium (tetramer).
The target of test [5] is Peptide 11. As to the kind of experiment: FP; calcium (tetramer).
For test [6], the target named is Peptide 8. As to the kind of experiment: FP; calcium (tetramer).
Test [7] has as its target Peptide 5. As to the kind of experiment: FP; Ca2+.
Test [8] deals with Peptide 4. The test is described as follows: FP; Ca2+.
Test [9] deals with Peptide 2. The test is described as follows: FP; Ca2+.
The target in test [10] is Peptide 7. The test is described as follows: FP; Ca2+.
The target of test [11] is Peptide 6. The test is described as follows: FP; Ca2+.
Test [12] has as its target Peptide 1. As to the kind of experiment: FP; Ca2+.
In test [13] the target is Peptide 4. As to the kind of experiment: SPR. On the technique in general: In SPR one partner is held on a chip, and binding of the other changes the refractive index at the surface.
In test [14] the target is Peptide 2. As to the kind of experiment: SPR.
Test [15] deals with Peptide 7. The test is described as follows: SPR.
For test [16], the target named is Peptide 6. As to the kind of experiment: SPR.
Test [17] concerns the target Peptide 1. As to the kind of experiment: SPR.
The target in test [18] is Peptide 3. The test is described as follows: SPR.
Test [19] addresses B1. The test is described as follows: SPR.

As for B1, the Kd (commonly the constant that tells how readily two partners part at equilibrium) in test [1] is 29000 nM; in test [2] it was 190000 nM; in test [3], 154000 nM; in [4], 37000 nM; in test [5] it was 42000 nM; in test [6] it was 89 nM. The Kd was 55 nM in test [7]; 34 nM in test [8]; 22 nM in test [9]; 25 nM in [10]; 10 nM in test [11]; 38 nM in test [12]. For the same molecule, the Kd in test [13] is 1100 nM; in test [14] it was 400 nM; in [15], 840 nM; in [16], 310 nM; in test [17], 1220 nM; in test [18], 340 nM.
With {FAM}-RSPESVAFPMFQSHWYSG [linear peptide 3], in [19], the Kd was found to be 46 nM.
Turning to Fluorescein-RCPECVAFPMFQCHWYCG (not fully specified (bridges); also: disulfide pairing not given here) [peptide 3 isomer 3], in test [19], the Kd amounted to 270 nM.
Same read-out and setting: next, Fluorescein-RCPECVAFPMFQCHWYCG (not fully specified (bridges); also: disulfide pairing not given here) [peptide 3 isomer 2]: 500 nM.
